Values joined by “and” are separate entries in the source; they are usually repeats but may differ in a detail not shown here. Identical values can stand only once. Like-named read-outs stand apart in the source and are kept apart here.
T1: recombinant human IL-23 (human, UniProt P29460 23-328)
T1 sequence 1: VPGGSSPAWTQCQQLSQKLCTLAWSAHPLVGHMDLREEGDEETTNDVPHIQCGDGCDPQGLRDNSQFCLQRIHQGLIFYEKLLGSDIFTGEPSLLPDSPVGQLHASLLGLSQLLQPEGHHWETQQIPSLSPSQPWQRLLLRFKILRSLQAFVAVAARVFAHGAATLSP
T1 sequence 2: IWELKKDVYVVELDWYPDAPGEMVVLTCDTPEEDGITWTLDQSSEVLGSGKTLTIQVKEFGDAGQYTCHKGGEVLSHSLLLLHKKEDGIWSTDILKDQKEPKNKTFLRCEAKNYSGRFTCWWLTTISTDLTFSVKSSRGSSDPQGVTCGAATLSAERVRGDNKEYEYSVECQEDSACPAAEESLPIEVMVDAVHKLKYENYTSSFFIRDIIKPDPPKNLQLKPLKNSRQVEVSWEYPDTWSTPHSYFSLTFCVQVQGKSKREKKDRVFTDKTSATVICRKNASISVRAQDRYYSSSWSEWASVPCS

T2: human IL-12 (human, UniProt P29459 23-219; P29460 23-328)
T2 sequence (looked up) 1: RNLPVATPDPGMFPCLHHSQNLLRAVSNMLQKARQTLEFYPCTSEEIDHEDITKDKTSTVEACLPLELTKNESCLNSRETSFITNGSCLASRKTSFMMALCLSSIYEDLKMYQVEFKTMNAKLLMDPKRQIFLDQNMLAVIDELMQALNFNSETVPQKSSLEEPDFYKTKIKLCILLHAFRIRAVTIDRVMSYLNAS
T2 sequence (looked up) 2: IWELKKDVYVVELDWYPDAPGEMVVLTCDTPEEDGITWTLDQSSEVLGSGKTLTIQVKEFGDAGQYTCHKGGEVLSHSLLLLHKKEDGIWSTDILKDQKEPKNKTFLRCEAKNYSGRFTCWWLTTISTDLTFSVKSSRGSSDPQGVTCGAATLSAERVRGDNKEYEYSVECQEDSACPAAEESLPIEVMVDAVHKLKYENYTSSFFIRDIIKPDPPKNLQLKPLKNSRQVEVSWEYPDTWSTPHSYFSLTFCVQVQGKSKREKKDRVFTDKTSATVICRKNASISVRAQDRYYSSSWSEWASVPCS

T3: natural human IL-23 from activated THP-1 cells (human, UniProt P29460 23-328)
T3 sequence 1: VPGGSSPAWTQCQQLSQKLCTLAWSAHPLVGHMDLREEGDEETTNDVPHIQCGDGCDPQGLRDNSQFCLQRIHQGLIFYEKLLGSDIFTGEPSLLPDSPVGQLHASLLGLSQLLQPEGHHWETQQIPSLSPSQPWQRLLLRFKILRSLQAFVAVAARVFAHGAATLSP
T3 sequence 2: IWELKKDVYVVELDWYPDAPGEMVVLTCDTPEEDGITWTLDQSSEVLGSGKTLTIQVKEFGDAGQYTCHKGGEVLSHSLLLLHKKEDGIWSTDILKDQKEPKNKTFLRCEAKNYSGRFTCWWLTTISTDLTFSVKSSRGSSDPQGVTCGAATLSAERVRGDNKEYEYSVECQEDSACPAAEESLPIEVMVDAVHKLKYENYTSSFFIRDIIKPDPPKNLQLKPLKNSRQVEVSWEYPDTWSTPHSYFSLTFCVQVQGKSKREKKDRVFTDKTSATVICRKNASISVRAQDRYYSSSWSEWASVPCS


How the values were obtained:
Assay in all cases: cell-based or functional assay
recombinant human IL-23 [1] = molecular target: T1, recombinant human IL-23
human IL-12 = molecular target: T2, human IL-12
[2] = molecular target: recombinant human IL-23 (human) (UniProt P29460)
[3] = molecular target: natural human IL-23 from activated THP-1 cells (human) (UniProt P29460)
[4] = molecular target: T3, natural human IL-23 from activated …
recombinant human IL-23 [5] = molecular target: T1, recombinant human IL-23; remark: listed apart in the source
recombinant human IL-23 [6] = molecular target: T1, recombinant human IL-23; remark: listed apart in the source

IC50, inhibition of IL-17 production from IL-23 stimulated mouse splenocytes (recombinant human IL-23 [1]) | Average pg/ml IFN-γ +/- Standard Deviation, human PHA-derived T cell blasts with 1 ng/ml IL-12 (no antibody: 532 +/- 51; unstimulated: 87 +/- 7) (human IL-12) [pg/mL] | IC50, inhibition of IL-23 induced STAT3 phosphorylation in human DB cells [2] | IC50, inhibition of IL-17 production from IL-23 stimulated mouse splenocytes [3] | IC50, inhibition of IL-17 production from IL-23 stimulated mouse splenocytes [4] | IC50, inhibition of IL-17 production from IL-23 stimulated mouse splenocytes (recombinant human IL-23 [5]) | IC50, inhibition of IL-23 induced STAT3 phosphorylation in human DB cells (recombinant human IL-23 [6]) | Binder
0.031 nM | 511 | – | – | – | – | – | Chimeric 18E5 (antibody, V domains shown) VH: EVQLQQSGPELVKPGAAVKMSCKASGYTFTRYLIHWVKQKPGQGLEWIGYINPYNDGTKYNEKFKGKATLTSDKSSSTAYMELSSLTSEDSAVYYCTSNWDLDYWGQGTTLTVSS VL: DIVMTQSPATLSVTPGDRVSLSCRASQSISDYLYWYQQKSHESPRLLIKFASQSISGIPSRFTGSGSGSDFTLSIDSVEPDDVGVFFCQNGHSFPFTFGGGTKLEIK
– | – | 0.163 nM and 0.438 nM | 0.093 nM and 0.044 nM | – | – | – | Antibody C1273 (disclosed in WO 2007/005955) (antibody, from another filing, V domains shown) VH: DVNLVESGGGLVKPGGSLKLSCAASGFTFSSYTMSWVRQTPEKRLEWVATISSGGTYTYYPDSVKGRFTISRDNAKNTLYLQMSSLKSEDTAMFYCTRDNHAYDRGPFFDYWGQGATLTVSS VL: DIVMSQSPSSLVVSVGEKVTMSCKSSQNLFYRSNQKNHLAWYQQKPGQSPTLLIYWTSTRESGVPDRFTGSGSGTDFTLTISRVKAEDLAVYYCQQYYSYPPTFGGGTKLEIK
0.026 nM and 0.037 nM and 0.057 nM | 523 | – | – | 0.005 nM and 0.002 nM and 0.006 nM and 0.003 nM | – | – | Chimeric 6B8 (antibody, IgG1, V domains shown) VH: QVQLQQSDAELVKPGTSVKTSCKISGNTFTDQTIHWMKQRPEQGLEWIGYIYPRDDSPKYNENFKGKATLTADKSSSTAYMQLNSLTSEDSAVYFCAIPDRSGYAWFIYWGQGTLVTVSS VL: DIVMTQSHKFLSTSVGDRVTITCKASRDVAIAVAWYQQKPGQSPKLLLFWASTRHTGVPDRFTGSGSRTDFTLTISNVQSEDLADYFCHQYSSYPFTFGSGTKLEIK
– | – | – | – | – | 1.6 nM and 0.806 nM and 1.3 nM | – | Antibody 6H12 (disclosed in WO 2007/027714) (antibody, from another filing, V domains shown) VH: EVHLQQSGPELVKPGASVKMSCKASGYTFNRYLIHWVKQKPGQGLEWIGYINPNNDGTNYNEKFKGKATLTSDKSSSTAYMELSSLTSEDSAVYYCAANWDQAYWGQGTLVTVSA VL: DIVMTQSPATLSVTPGDRVSLSCRASQSISDYLHWYQQKSHESPRLLIKYTSQSISGIPSRFSGSGSGSDFTLSINSVEPEDVGVYYCQNGHSFPFTFGSGTKLEIKR
0.005 nM and 0.015 nM | 497 | – | – | 0.001 nM | – | – | Antibody A (antibody, human IgG1, kappa, L234A L235A, V domains shown) VH: QVQLVQSGAEVKKPGSSVKVSCKASGYTFTDQTIHWMRQAPGQGLEWIGYIYPRDDSPKYNENFKGKVTITADKSTSTAYMELSSLRSEDTAVYYCAIPDRSGYAWFIYWGQGTLVTVSS VL: DIQMTQSPSSLSASVGDRVTITCKASRDVAIAVAWYQQKPGKVPKLLIYWASTRHTGVPSRFSGSGSRTDFTLTISSLQPEDVADYFCHQYSSYPFTFGSGTKLEIKR
0.236 nM and 0.225 nM and 0.614 nM and 0.458 nM | 539 | – | – | 0.133 nM and 0.125 nM | – | 0.158 nM | Antibody D (antibody, human IgG1, kappa, L234A L235A, V domains shown) VH: QVQLVQSGAEVKKPGSSVKVSCKASGFTFTDQTIHWVRQAPGQGLEWMGYIYPRDDSPKYNENFKGKVTLTADKSTSTAYMELSSLRSEDTAVYYCAIPDRSGYAWFIYWGQGTLVTVSS VL: DIQMTQSPSSLSASVGDRVTITCKASRDVAIAVAWYQQKPGKVPKLLLFWASTRHTGVPDRFSGSGSGTDFTLTISSLQPEDLADYYCHQYSSYPFTFGQGTKLEIKR
– | 495 | – | – | 0.016 nM and 0.032 nM | – | 0.132 nM and 0.08 nM | Antibody C (antibody, human IgG1, kappa, L234A L235A, V domains shown) VH: QVQLVQSGAEVKKPGSSVKVSCKASGYTFTDQTIHWMRQAPGQGLEWIGYIYPRDDSPKYNENFKGKVTITADKSTSTAYMELSSLRSEDTAVYYCAIPDRSGYAWFIYWGQGTLVTVSS VL: DIQMTQSPSSLSASVGDRVTITCKASRDVAIAVAWYQQKPGKVPKLLLFWASTRHTGVPDRFSGSGSGTDFTLTISSLQPEDLADYYCHQYSSYPFTFGQGTKLEIKR
– | 537 | – | – | 0.009 nM and 0.008 nM | – | 0.073 nM and 0.084 nM | Antibody B (antibody, human IgG1, kappa, L234A L235A, V domains shown) VH: QVQLVQSGAEVKKPGSSVKVSCKASGFTFTDQTIHWVRQAPGQGLEWMGYIYPRDDSPKYNENFKGKVTLTADKSTSTAYMELSSLRSEDTAVYYCAIPDRSGYAWFIYWGQGTLVTVSS VL: DIQMTQSPSSLSASVGDRVTITCKASRDVAIAVAWYQQKPGKVPKLLIYWASTRHTGVPSRFSGSGSRTDFTLTISSLQPEDVADYFCHQYSSYPFTFGSGTKLEIKR
